Tested on: MS2 coat protein
Test: apparent KD of MS2 coat protein; designed switch direction (-1 OFF switch, 1 ON switch): -1; higher = weaker reporter binding
Method in brief: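 Designed RNA switches sharing common flanks were transcribed on Illumina chips by stalled E. coli RNA polymerase. They were titrated with SNAP-549-labelled MS2 coat protein, from 0.7 or 1.5 nM doubling to 3 µM, in Tris-HCl pH 7.5 buffer with KCl, MgCl2, BSA, DTT, tRNA and Tween-20. Titrations ran without input, with 200 uM small-molecule ligand, or with an oligonucleotide input. The apparent KD of each design is the median over its clusters, after curve-fitting of normalised cluster fluorescence.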

[1] = input ligand: microRNA oligo, concentration not stated
[2] = Eterna round: R95, input ligand: microRNA oligo, concentration not stated
[3] = Eterna round: R95, input ligand: FMN 200 uM
[4] = Eterna round: R95, input ligand: none

Sequence	apparent KD of MS2 coat protein (input ligand: FMN 200 uM)	apparent KD of MS2 coat protein [1]	apparent KD of MS2 coat protein (input ligand: none)	apparent KD of MS2 coat protein [2]	apparent KD of MS2 coat protein [3]	apparent KD of MS2 coat protein [4]
UUCAUGUGAGGAUAUAGUACUUCUUCUAUUAUUAUUGAGUACUAGAAGGCACAUGAGGAUCACCCAUGUAGUAC [Ex4 - 3 - 43] (Eterna round: R96, puzzle: Exclusion 4)	21.8 nM	22.1 nM	39.1 nM			
AACAUGAGGAUCACCCAUGUAAUGGACAGAUCACCGACCACGCAGGAUAUUAGGCCUCAAAUUCUUAAGAAGGGCGAGGAUGUG [Eternabot solution 49] (Eterna round: R96, puzzle: Exclusion NG 3)	50.3 nM	52 nM	66.9 nM			
GAAGAUCGAGUUAGGAUAUGAUUACUAUCCGAAAAUCAGAAGGAACUUGAGGAUCACCCAAGUUUAGAAGAAAU [JR_BMEx4_Sub052] (Eterna round: R97, puzzle: Brourd's mod of Exclusion 4)	18.2 nM		14.7 nM			
AAUACACAUGAGGAUCACCCAUGUCAGGAUAUGCGGAAUAAGACUUUGGUCGAUAAAUGUAGAAGGGACGUUUA [Dr. RN-Ant/Googlypuddle] (puzzle: Exclusion 1)				27.7 nM		
CCUCUUGGGCAAGGAUAUCCUGCGCGGUUCCGGUUCGUGUCUGUCACAUGAGGAUCACCCAUGUGGGAGAAGGUGCCUGCGGUC [Design 78] (Eterna round: R96, puzzle: Exclusion NG 2)		12 nM				
AGCAUCUGAGGAUAUACUGGGUAUGGAAGGCGAAGGGCCAGACAUGAGGAUCACCCAUGUAGAAGGCAGUUUGC [Esenonan] (puzzle: Exclusion 2)				78.4 nM		
UUUAAUUUUUUUUUUUUACAAGCUUUUUGCUCGUCUUAUACAUGAGGAUCACCCAUGUGGGUGGGAGGUAAAUUAUC [JMF 78] (puzzle: Sensor v3, turn-off variant 2)				26.1 nM	63.7 nM	82.6 nM
AAUAACAGAGGAUAUACUGUUUUAUGUAUUUAUUAUUUUAAACAUGAGGAUCACCCAUGUAGAAGGCUGAGUAA [JMF 28] (puzzle: Exclusion 2)				22.6 nM		
AUGAGCAGACGGAGAUCCAACAUGAGGAUCACCCAUGUCUCAUAAGCUUUUUGUUCAUCUUAUUGUACCUUGGUGCA [Mat - Sensor v3 - turn-off var 1 - JL Mod - D25] (Eterna round: R96, puzzle: Sensor v3, turn-off variant 1)	242 nM	25.4 nM	198 nM			
CAUCCAGCUUCCCUUCAAAACAUGAGGAUCACCCAUGUUUUUGUUUUUACAAGCUUUUUGCUUUUUGCUCGUCUUGU [A Humble Attempt... Again] (puzzle: Sensor v3, turn-off variant 1)				16 nM	20.5 nM	21.5 nM
AGAUUGCAUGAGGAUAUCGUAUUAGAUAUAAUGCGAGAAGGCAUGACAUGAGGAUCACCCAUGUAGUGUUGGGA [JR_Ex6_Sub012] (Eterna round: R97, puzzle: Exclusion 6)	75.1 nM		52.6 nM			
AGGUGUAGAGGAUAUCGACUUUCUCACAUGAGGAUCACCCAUGUCCUGGUCACCCAGGACCGAGAAGGCUACACCA [Omei Ex5 D27] (Eterna round: R97, puzzle: Exclusion 5)	204 nM		27.6 nM			
AUUUUGUGAGGAUAUUAGUUGUAGAAAAUUAUUAGUUUAGCUGAGAAGGCACAUGAGGAUCACCCAUGUAAAUC [JR_Ex4_Sub043] (Eterna round: R97, puzzle: Exclusion 4)	26.7 nM		18.6 nM			
AGAGUGCUGCGAGGAUAUACAUGAGGAUCACCCAUGUUUUCCUGUGAGGCAUAGCCUCACAGGAUGUAGAAGGCGCAGUACUCA [Mat - Exclusion NG 2 - Mod of JL - D29] (Eterna round: R96, puzzle: Exclusion NG 2)	13.5 nM	9.44 nM	13.7 nM			
GAGUGACAUGAGGAUCACCCAUGUGAGGAUAUCCGAUGGACCAAAUUAACAAUAGAAGGGAGAAGGCGCAUAAA [Exclusion 1 V8] (puzzle: Exclusion 1)				152 nM	133 nM	158 nM
GGAUAAAAGGCAGGAUAUACGUAUCACUAACGAGUAGAAGGGCCACAUGAGGAUCACCCAUGUGAGUUCUCAAUAAGAAACACG [Prohibition 63 - Jieux - Exclusion NG 1] (Eterna round: R96, puzzle: Exclusion NG 1)	15.3 nM	10.7 nM	14.2 nM			
CCUAUGUGAGGAUAUCACUGGUCUUCUUUUAUUUUUUACAGUGAGAAGGCACAUGAGGAUCACCCAUGUCGGUG [Ex4 - 3 - 49] (puzzle: Exclusion 4)				151 nM		

Sequence	apparent KD of MS2 coat protein (input ligand: FMN 200 uM)	apparent KD of MS2 coat protein [1]	apparent KD of MS2 coat protein (input ligand: none)	apparent KD of MS2 coat protein [2]	apparent KD of MS2 coat protein [3]	apparent KD of MS2 coat protein [4]
AUGCUCCGUGUAGGAUAUCGCCGUACUACUCGGCGAGAAGGACAUGAGGAUCACCCAUGUAUGUUAUUAUCACGUGUGGCGCGC [Design 49] (Eterna round: R96, puzzle: Exclusion NG 1)	45.7 nM	14 nM	19.7 nM			
AGAUUAAAAGUAAGGAUAUGCUUCCGGAAACGGAGGCAGAAGGUACAUGAGGAUCACCCAUGUUAAACUAAUUU [Explosion 5 - Jieux - Brourd's mod of Exclusion 4] (Eterna round: R97, puzzle: Brourd's mod of Exclusion 4)	21.2 nM		15.3 nM			
GCCAGAGCAGGAUAUUCAGUAUCACACAUGAGGAUCACCCAUGUCUAUCGAAAGAUAGAGGGAGAAGGGCUCUGGC [Mat - Exclusion 5 - Eli mod - D95] (puzzle: Exclusion 5)				105 nM	28.4 nM	118 nM
ACAAGAAUUUUGCUCGUAAAGUAGAAACGCGAGAGCGAGACAUGAGGAUCACCCAUGUAAAGGCAGUAGGUGGAGAU [JR_SV3TOV2_Sub027] (puzzle: Sensor v3, turn-off variant 2)				50.9 nM	49.3 nM	46.1 nM
GGUUGGCGAGGAUAUACAUGAGGAUCACCCAUGUGAGAGAAAAAAGUGAGGAAGAAACGUAGAAGGCGCUGACG [salish99_ex3_r3_037] (puzzle: Exclusion 3)				34.2 nM	42.6 nM	45.2 nM
ACAAGCUUUUUGUUCGUCUUAUAAUAAUAAAUAAAGAUAACAUGAGGAUCACCCAUGUAACAAAGACGGACUCAUGU [Sesor Array 18 - Jieux - Sensor v3, turn-off variant 2] (puzzle: Sensor v3, turn-off variant 2)				279 nM	18.2 nM	16.3 nM
AGCUGUGGCCGAGGAUAUCACGACCGAUGGAAAACCAUCGGAACUCCACAUGAGGAUCACCCAUGUGAGAAGGCGGUCUCAGCA [Eli eng2 - 028] (Eterna round: R96, puzzle: Exclusion NG 2)	27.3 nM	10.2 nM	13.4 nM			
AUCGUGUGAGGAUAUCGAUGUUGGACGUCUAGGUCUGAGCGCGAGAAGGCACAUGAGGAUCACCCAUGUAAGGG [jl-ex4-4.24 ViennaUCT mod] (Eterna round: R97, puzzle: Exclusion 4)	220 nM		896 nM			
ACAUGUAAUGUAGGAUAUUUUACACAUGAGGAUCACCCAUGUGACCAGAGGCUUUGCUAUGAGUAAAAGAAGGGUAUGUACAUG [Ex NG2 #59] (Eterna round: R96, puzzle: Exclusion NG 2)		51.5 nM				
GUAAACGUAUAGGAUAUUUCAGGUCAAAGCUGCAAAGAAGGAUACACAUGAGGAUCACCCAUGUGGUCAAUAAA [Mod of Quesina 23 - Jieux - Exclusion 6] (Eterna round: R97, puzzle: Exclusion 6)	42.2 nM		20.4 nM			
UUGAAGUAAGGAUAUACAUGAGGAUCACCCAUGUGGAGGAAGGUGAUGGGAGUAGGUAGUAGAAGGUACGAGGA [JR_Exclu3_Sub063] (puzzle: Exclusion 3)				100 nM	124 nM	220 nM
UAUAUAUAGUAAGGAUAUGUAUAUGUUUUAUAAACAGAAGGUACUGACAUGAGGAUCACCCAUGUUUUAGUGUGGGCAUGUAGA [JMF's solution 54] (Eterna round: R96, puzzle: Exclusion NG 1)		44.5 nM				
CGGUGUAACGCAGGAUAUCAUCGCAACUGACGUUGAGAAGGGCGACAUGAGGAUCACCCAUGUGAUUUCUCAAUAUUAUACAUC [Prohibition 84 - Jieux - Exclusion NG 1] (Eterna round: R96, puzzle: Exclusion NG 1)	212 nM	36.5 nM	59.8 nM			
AGACUUAUAGGAUAUACAUGAGGAUCACCCAUGUCGCCAGGCGGUAGCAGAGUCUUUUGUAGAAGGAUGACAAC [Eternabot (Original) Solution 35] (Eterna round: R97, puzzle: Exclusion 3)	20.6 nM		21.2 nM			
AAACCGCAAGGAUAUACUUGCGGUGGUGUUCGAAACUUUCUACUUGAGGAUCACCCAAGUAGAAGGUGCGGUAA [jl-ex2.4.71 ViennaUCT mod] (Eterna round: R97, puzzle: Exclusion 2)	13.2 nM		12.9 nM			
CUAGAUCUUCGGAUCUAGUACAUGAGGAUCACCCAUGUUACGAGCAGAUUUUCAUACAAGCUUUUUGCUCGUCUUAU [Sensor v3 - Turn-off variant 1 - 32] (puzzle: Sensor v3, turn-off variant 1)				72.4 nM	24.7 nM	27.3 nM
